In the supplement of paper PMC11246515:
± gives the standard deviation of the averaged measurements.

Experiment: total protein half-life in vivo (active degradation + dilution); higher = more stable protein
[1] = E. coli NCM3722 delta-clpP delta-lon delta-hslV, growth: N-lim chemostat, doubling time 6 h
[2] = E. coli NCM3722 delta-clpP, growth: N-lim chemostat, doubling time 6 h
[3] = E. coli NCM3722 delta-hslV, growth: N-lim chemostat, doubling time 6 h
[4] = E. coli NCM3722 delta-lon, growth: N-lim chemostat, doubling time 6 h
[5] = E. coli NCM3722 delta-smpB, growth: N-lim chemostat, doubling time 6 h
[6] = wild type E. coli NCM3722, growth: C-lim chemostat, doubling time 3 h
[7] = wild type E. coli NCM3722, growth: C-lim chemostat, doubling time 6 h
[8] = wild type E. coli NCM3722, growth: C-lim chemostat, doubling time 12 h
[9] = wild type E. coli NCM3722, growth: N-lim chemostat, doubling time 6 h
[10] = wild type E. coli NCM3722, growth: N-lim chemostat, doubling time 12 h
[11] = wild type E. coli NCM3722, growth: P-lim chemostat, doubling time 6 h
[12] = wild type E. coli NCM3722, growth: P-lim chemostat, doubling time 12 h

Sequence | total protein half-life in vivo [1] [h] | total protein half-life in vivo [2] [h] | total protein half-life in vivo [3] [h] | total protein half-life in vivo [4] [h] | total protein half-life in vivo [5] [h] | total protein half-life in vivo [6] [h] | total protein half-life in vivo [7] [h] | total protein half-life in vivo [8] [h] | total protein half-life in vivo [9] [h] | total protein half-life in vivo [10] [h] | total protein half-life in vivo [11] [h] | total protein half-life in vivo [12] [h]
MTKHYDYIAIGGGSGGIASINRAAMYGQKCALIEAKELGGTCVNVGCVPKKVMWHAAQIREAIHMYGPDYGFDTTINKFNWETLIASRTAYIDRIHTSYENVLGKNNVDVIKGFARFVDAKTLEVNGETITADHILIATGGRPSHPDIPGVEYGIDSDGFFALPALPERVAVVGAGYIAVELAGVINGLGAKTHLFVRKHAPLRSFDPMISETLVEVMNAEGPQLHTNAIPKAVVKNTDGSLTLELEDGRSETVDCLIWAIGREPANDNINLEAAGVKTNEKGYIVVDKYQNTNIEGIYAVGDNTGAVELTPVAVAAGRRLSERLFNNKPDEHLDYSNIPTVVFSHPPIGTVGLTEPQAREQYGDDQVKVYKSSFTAMYTAVTTHRQPCRMKLVCVGSEEKIVGIHGIGFGMDEMLQGFAVALKMGATKKDFDNTVAIHPTAAEEFVTMR | 5.12 ± 0.23 | 5.46 ± 0.48 | 4.85 ± 0.18 | 5.81 ± 0.49 | 4.64 ± 0.066 | 3.02 ± 0.17 | 6.27 ± 0.5 | 11.5 ± 0.61 | 5.08 ± 0.14 | 8.33 ± 0.71 | 6.07 ± 0.31 | 13 ± 0.92
MKKAGLLFLVMIVIAVVAAGIGYWKLTGEESDTLRKIVLEECLPNQQQNQNPSPCAEVKPNAGYVVLKDLNGPLQYLLMPTYRINGTESPLLTDPSTPNFFWLAWQARDFMSKKYGQPVPDRAVSLAINSRTGRTQNHFHIHISCIRPDVRKQLDNNLANISSRWLPLPGGLRGHEYLARRVTESELVQRSPFMMLAEEVPEAREHMGRYGLAMVRQSDNSFVLLATQRNLLTLNRASAEEIQDHQCEILR | 6.38 ± 0.31 | 6.726 ± 0.048 | 6.364 ± 0.022 |  | 6.59 ± 0.21 | 3.17 ± 0.07 | 7.09 ± 1 | 12.8 ± 0.32 | 6.45 ± 0.28 |  | 6.13 ± 0.2 | 13.6 ± 0.51
MNNLPLLNDLRVFMLVARRAGFAAVAEELGVSPAFVSKRIALLEQTLNVVLLHRTTRRVTITEEGERIYEWAQRILQDVGQMMDELSDVRQVPQGMLRIISSFGFGRQVVAPALLALAKAYPQLELRFDVEDRLVDLVNEGVDLDIRIGDDIAPNLIARKLATNYRILCASPEFIAQHGAPKHLTDLSALPCLVIKERDHPFGVWQLRNKEGPHAIKVTGPLSSNHGEIVHQWCLDGQGIALRSWWDVSENIASGHLVQVLPEYYQPANVWAVYVSRLATSAKVRITVEFLRQYFAEHYPNFSLEHA | 5.43 ± 0.67 | 1.82 ± 0.43 |  |  | 1.16 | 0.948 ± 0.17 | 2.24 ± 0.21 | 3.54 ± 0.1 |  |  | 0.535 | 
MQVLHVCSEMFPLLKTGGLADVIGALPAAQIADGVDARVLLPAFPDIRRGVTDAQVVSRRDTFAGHITLLFGHYNGVGIYLIDAPHLYDRPGSPYHDTNLFAYTDNVLRFALLGWVGAEMASGLDPFWRPDVVHAHDWHAGLAPAYLAARGRPAKSVFTVHNLAYQGMFYAHHMNDIQLPWSFFNIHGLEFNGQISFLKAGLYYADHITAVSPTYAREITEPQFAYGMEGLLQQRHREGRLSGVLNGVDEKIWSPETDLLLASRYTRDTLEDKAENKRQLQIAMGLKVDDKVPLFAVVSRLTSQKGLDLVLEALPGLLEQGGQLALLGAGDPVLQEGFLAAAAEYPGQVGVQIGYHEAFSHRIMGGADVILVPSRFEPCGLTQLYGLKYGTLPLVRRTGGLADTVSDCSLENLADGVASGFVFEDSNAWSLLRAIRRAFVLWSRPSLWRFVQRQAMAMDFSWQVAAKSYRELYYRLK [P0A6U8] | 6.98 ± 0.61 | 6.92 ± 1.1 | 6.028 ± 0.0091 | 5.806 ± 0.035 | 5.83 ± 0.06 | 3.03 ± 0.11 | 6.7 ± 0.36 | 11.4 ± 0.49 | 6.21 ± 0.21 | 13.2 ± 2 | 6.32 ± 0.3 | 12.4 ± 0.65
MTQFTQNTAMPSSLWQYWRGLSGWNFYFLVKFGLLWAGYLNFHPLLNLVFAAFLLMPLPRYSLHRLRHWIALPIGFALFWHDTWLPGPESIMSQGSQVAGFSTDYLIDLVTRFINWQMIGAIFVLLVAWLFLSQWIRITVFVVAILLWLNVLTLAGPSFSLWPAGQPTTTVTTTGGNAAATVAATGGAPVVGDMPAQTAPPTTANLNAWLNNFYNAEAKRKSTFPSSLPADAQPFELLVINICSLSWSDIEAAGLMSHPLWSHFDIEFKNFNSATSYSGPAAIRLLRASCGQTSHTNLYQPANNDCYLFDNLSKLGFTQHLMMGHNGQFGGFLKEVRENGGMQSELMDQTNLPVILLGFDGSPVYDDTAVLNRWLDVTEKDKNSRSATFYNTLPLHDGNHYPGVSKTADYKARAQKFFDELDAFFTELEKSGRKVMVVVVPEHGGALKGDRMQVSGLRDIPSPSITDVPVGVKFFGMKAPHQGAPIVIEQPSSFLAISDLVVRVLDGKIFTEDNVDWKKLTSGLPQTAPVSENSNAVVIQYQDKPYVRLNGGDWVPYPQ | 3.61 ± 0.11 | 4.03 ± 0.34 | 2.98 ± 1.2 | 3.68 ± 0.32 | 3.66 ± 0.32 | 2.602 ± 0.019 | 4.28 ± 0.59 | 8.3 ± 0.53 | 4.05 ± 0.25 | 6.43 ± 1.3 | 3.91 ± 0.42 | 6.54 ± 0.083
MTEVRRRGRPGQAEPVAQKGAQALERGIAILQYLEKSGGSSSVSDISLNLDLPLSTTFRLLKVLQAADFVYQDSQLGWWHIGLGVFNVGAAYIHNRDVLSVAGPFMRRLMLLSGETVNVAIRNGNEAVLIGQLECKSMVRMCAPLGSRLPLHASGAGKALLYPLAEEELMSIILQTGLQQFTPTTLVDMPTLLKDLEQARELGYTVDKEEHVVGLNCIASAIYDDVGSVVAAISISGPSSRLTEDRFVSQGELVRDTARDISTALGLKAHP [P0ACN4] |  | 5.13 ± 0.62 | 5.12 ± 0.34 | 4.42 ± 0.94 | 4.4 ± 0.4 | 2.79 ± 0.13 | 5.64 ± 0.18 | 11 ± 0.97 | 4.91 ± 0.23 | 9.46 ± 0.2 | 5.44 ± 0.41 | 11.1 ± 0.81
